From paper PMC9427786, “Structure–function characterization of an aldo–keto reductase involved in detoxification of the mycotoxin, deoxynivalenol” (Scientific Reports, 2022)
Like-named read-outs stand apart in the source and are kept apart here.

Legend:
[1] = target: DepB from Rhizobium leguminosarum (DepB_(Rleg)) (Rhizobium leguminosarum); assay: SEC-MALS; P3000 single-pore GPC/SEC column; 20 mM HEPES, 150 mM NaCl, 0.02% NaN3, pH 7; protein at 0.5 mg/mL
DepBRleg [2] = target: T1, DepBRleg (Rhizobium leguminosarum, UniProt J0WHR2); assay: NADPH oxidation at […] nm; type: biochemical
T1 construct: gene Rleg4DRAFT_7458; N-terminal His-tag, pET28a (NdeI/HindIII), expressed in E. coli BL21 LOBSTR; about 39 kDa protomer; octamer

[3] = system: O=C1C(=O)c2ccccc2-c2ccccc21; assay: purified protein; type: biochemical, Rhizobium leguminosarum; conditions: pH 7.5; 25.0 °C
DepBRleg [4] = target: T1, DepBRleg; assay: tryptophan fluorescence quenching; type: binding
Excerpt: (§1) tryptophan fluorescence quenching on DepBRleg

DepBRleg [5] = target: T2, DepBRleg (Rhizobium leguminosarum, UniProt J0WHR2, K217E); assay: tryptophan fluorescence quenching; type: binding
T2 construct: gene Rleg4DRAFT_7458; N-terminal His-tag, pET28a (NdeI/HindIII), expressed in E. coli BL21 LOBSTR; about 39 kDa protomer; octamer
Excerpt: as §1

DepBRleg [6] = target: T3, DepBRleg (Rhizobium leguminosarum, UniProt J0WHR2, K217M); assay: tryptophan fluorescence quenching; type: binding
T3 construct: gene Rleg4DRAFT_7458; N-terminal His-tag, pET28a (NdeI/HindIII), expressed in E. coli BL21 LOBSTR; about 39 kDa protomer; octamer
Excerpt: as §1

DepBRleg [7] = target: T4, DepBRleg (Rhizobium leguminosarum, UniProt J0WHR2, Q294E); assay: tryptophan fluorescence quenching; type: binding
T4 construct: gene Rleg4DRAFT_7458; N-terminal His-tag, pET28a (NdeI/HindIII), expressed in E. coli BL21 LOBSTR; about 39 kDa protomer; octamer
Excerpt: as §1

DepBRleg [8] = target: T5, DepBRleg (Rhizobium leguminosarum, UniProt J0WHR2, R290E); assay: tryptophan fluorescence quenching; type: binding
T5 construct: gene Rleg4DRAFT_7458; N-terminal His-tag, pET28a (NdeI/HindIII), expressed in E. coli BL21 LOBSTR; about 39 kDa protomer; octamer
Excerpt: as §1

DepBRleg [9] = target: T6, DepBRleg (Rhizobium leguminosarum, UniProt J0WHR2, R290N); assay: tryptophan fluorescence quenching; type: binding
T6 construct: gene Rleg4DRAFT_7458; N-terminal His-tag, pET28a (NdeI/HindIII), expressed in E. coli BL21 LOBSTR; about 39 kDa protomer; octamer
Excerpt: as §1

purified protein [10] = substrate: CCCC=O; assay: purified protein; type: biochemical, Rhizobium leguminosarum; conditions: 1 mM NADPH, 100 mM HEPES pH 7.5, 298 K, about 10% DMSO, 25.0 °C
purified protein [11] = substrate: CCCCCC(=O)/C=C/C=O; assay: purified protein; type: biochemical, Rhizobium leguminosarum; conditions: 1 mM NADPH, 100 mM HEPES pH 7.5, 298 K, about 10% DMSO, 25.0 °C
purified protein [12] = substrate: CCCCCC=O; assay: purified protein; type: biochemical, Rhizobium leguminosarum; conditions: 1 mM NADPH, 100 mM HEPES pH 7.5, 298 K, about 10% DMSO, 25.0 °C
purified protein [13] = substrate: NC(=O)C1=CN([C@@H]2O[C@H](COP(=O)(O)OP(=O)(O)OC[C@H]3O[C@@H](n4cnc5c(N)ncnc54)[C@H](OP(=O)(O)O)[C@@H]3O)[C@@H](O)[C@H]2O)C=CC1; assay: purified protein; type: biochemical, Rhizobium leguminosarum; conditions: 10 mM DL-glyceraldehyde, 100 mM HEPES pH 7.5, 298 K, 25.0 °C, varied: cofactor
purified protein [14] = substrate: O=C1Nc2ccccc2C1=O; assay: purified protein; type: biochemical, Rhizobium leguminosarum; conditions: 1 mM NADPH, 100 mM HEPES pH 7.5, 298 K, about 10% DMSO, 25.0 °C
purified protein [15] = substrate: O=CC(O)CO; assay: purified protein; type: biochemical, Rhizobium leguminosarum; conditions: 1 mM NADPH, 100 mM HEPES pH 7.5, 298 K, about 10% DMSO, 25.0 °C
purified protein [16] = substrate: NC(=O)C1=CN([C@@H]2O[C@H](COP(=O)(O)OP(=O)(O)OC[C@H]3O[C@@H](n4cnc5c(N)ncnc54)[C@H](O)[C@@H]3O)[C@@H](O)[C@H]2O)C=CC1; assay: purified protein; conditions: 10 mM DL-glyceraldehyde, 100 mM HEPES pH 7.5, 298 K, 25.0 °C, varied: cofactor

DepB from Rhizobium leguminosarum (DepB_(Rleg)) (enzyme)
stoichiometry N [1]: 8

C=CC=O [Acrolein]
Km (DepBRleg [2]; 1 mM NADPH, 100 mM HEPES pH 7.5, 298 K, about 10% DMSO; read-out: Km,app): 83.3 ± 6.69 µM

DepBRleg (Rhizobium leguminosarum bv. trifolii WSM2297)
Km [3]: 68.3 ± 14.3 µM

NC(=O)C1=CN([C@@H]2O[C@H](COP(=O)(O)OP(=O)(O)OC[C@H]3O[C@@H](n4cnc5c(N)ncnc54)[C@H](OP(=O)(O)O)[C@@H]3O)[C@@H](O)[C@H]2O)C=CC1 [NADPH]
Kd (DepBRleg [4]): 11.4 ± 0.84 µM | Kd (DepBRleg [5]): 68.6 ± 8.7 µM | Kd (DepBRleg [6]): 74.1 ± 4.6 µM | Kd (DepBRleg [7]): 97.9 ± 13 µM | Kd (DepBRleg [8]): 123 ± 6.2 µM | Kd (DepBRleg [9]): 59.5 ± 4.2 µM

O=C1C=C2C(=CCOC2O)O1 (stereo not drawn) [Patulin]
Km (DepBRleg [2]; read-out: Km,app; 1 mM NADPH, 100 mM HEPES pH 7.5, 298 K, about 10% DMSO): 678 ± 85.5 µM

NC(=O)C1=CN([C@@H]2O[C@H](COP(=O)(O)OP(=O)(O)OC[C@H]3O[C@@H](n4cnc5c(N)ncnc54)[C@H](O)[C@@H]3O)[C@@H](O)[C@H]2O)C=CC1 [NADH]
Kd (DepBRleg [4]): 67.3 ± 2.5 µM | Kd (DepBRleg [7]): 91.2 ± 10 µM | Kd (DepBRleg [8]): 119 ± 9.8 µM

B1: DepBRleg (Rhizobium leguminosarum bv. trifolii WSM2297) (protein)
chain: MDYRKLGPSGTVVTAYCLGTMTFGAEADEAASHKLLDDYFAWGGNFIDTADVYSAGKSEEIIGRWLKARPTEARQAIVATKGRFPMGNGPNDIGLSRRHLSQALDDSLRRLGLEQIDLYQMHAWDALTPIEETLRFLDDAVSSGKIGYYGFSNYVGWHIAKASEIAKARGYTRPVTLQPQYNLLMRDIELEIVAACQDAGMGLLPWSPLGGGWLTGKYKRDEMPTGATRLGENPNRGGESYAPRNAQERTWAIIGTVEEIAKARGVSMAQVALAWTAARPAITSVILGARTPEQLADNLGAMKVELSGEEMARLNEVSAPQPLDYPYGKGGINQRHRKIEGGR
Km (purified protein [10]): 617 ± 33.5 µM | kcat (purified protein [10]): 0.410 ± 0.00922 s⁻¹ | Km (purified protein [11]): 1020 ± 136 µM | kcat (purified protein [11]): 7.90 ± 0.678 s⁻¹ | Km (purified protein [12]): 1230 ± 231 µM | kcat (purified protein [12]): 0.303 ± 0.0269 s⁻¹ | Km (purified protein [13]): 15.2 ± 1.41 µM | kcat (purified protein [13]): 0.337 ± 0.00757 s⁻¹ | Km (purified protein [14]): 1780 ± 410 µM | kcat (purified protein [14]): 6.43 ± 0.920 s⁻¹ | Km (purified protein [15]): 3890 ± 516 µM | kcat (purified protein [15]): 0.782 ± 0.0803 s⁻¹ | Km (purified protein [16]): 1560 ± 399 µM | kcat (purified protein [16]): 0.0242 ± 0.00344 s⁻¹
